The text below walks through data of patent publication US20040073013A1 (Chugai, published 2004).

For assay [1], the target named is T1, human Integrin Associated Protein (IAP) expressed on mouse leukemia cell line L1210 (human, UniProt Q08722 19-323).
T1 construct: whole, on cells; also called human IAP; hIAP/L1210
The experiment in a line: flow cytometry, COS7 supernatant on L1210 cells expressing human IAP, anti-FLAG detection. The procedure:
Flow cytometry was performed using the culture supernatants of COS7 cells prepared in Example 6.3 (1) to measure the binding of the MABL2-scFVs and sc(Fv)₂ to human Integrin Associated Protein (IAP) antigen. The culture supernatants to be tested or a culture supernatant of COS7 cells as a control was added to 2×10⁵ cells of the mouse leukemia cell line L1210 expressing human IAP. After incubating on ice and washing, 10 μg/mL of the mouse anti-FLAG antibody (SIGMA) was added and then the cells were incubated and washed. Then, the FITC labeled anti-mouse IgG antibody (BECTON DICKINSON) was added thereto and the cells were incubated and washed again. The fluorescence intensity was measured using the FACScan apparatus (BECTON DICKINSON).
In general terms: A flow cytometer gives signals particle by particle.

Assay [2] concerns the target T1, human Integrin Associated Protein (IAP) …. The experiment in a line: flow cytometry, COS7 supernatant on L1210 cells expressing human IAP. The procedure:
Flow cytometry was performed using the aforementioned culture supernatant of COS7 cells to measure binding to the antigen. The culture supernatant of the COS7 cells expressing the chimera MABL-1 antibody or the COS7 cells expressing the chimera MABL-2 antibody, or human IgG antibody (SIGMA) as a control was added to 4×10⁵ cells of mouse leukemia cell line L1210 expressing human IAP and incubated on ice. After washing, the FITC-labeled anti-human IgG antibody (Cappel) was added thereto. After incubating and washing, the fluorescence intensity thereof was measured using the FACScan apparatus (BECTON DICKINSON).

The target of assay [3] is secretion-type human IAP antigen (human, UniProt Q08722 19-142, limits assumed). The experiment in a line: competitive ELISA on captured secretion-type human IAP; competitor biotinized MABL-2 antibody. The procedure: The binding activity of the reconstructed single-chain Fv of antibody MABL-2 was measured based on the inhibiting activity against the binding of mouse monoclonal antibodies to the antigen.
Chain of secretion-type human IAP antigen (Q08722 other isoform, or with tags, fused parts or gaps limits assumed): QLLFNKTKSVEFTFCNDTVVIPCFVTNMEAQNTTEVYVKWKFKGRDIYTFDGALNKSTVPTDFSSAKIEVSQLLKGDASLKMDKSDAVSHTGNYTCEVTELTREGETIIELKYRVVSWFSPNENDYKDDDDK
The anti-FLAG antibody adjusted to 1 μg/ml was added to each well on 96-well plate and incubated at 37° C. for 2 hours. After washing, blocking was performed with 1% BSA-PBS. After incubating and washing at a room temperature, the culture supernatant of COS7 cells into which the secretion-type human IAP antigen gene (SEQ ID No. 26) had been introduced was diluted with PBS into twofold volume and added to each well. After incubating and washing at a room temperature, a mixture of 50 μl of the biotinized MABL-2 antibody adjusted to 100 ng/ml and 50 μl of sequentially diluted supernatant of the COS7 cells expressing the reconstructed single-chain Fv of antibody MABL-2 were added into each well. After incubating and washing at a room temperature, the alkaline phosphatase-conjugated streptoavidin (Zymed) was added into each well. After incubating and washing at a room temperature, the substrate solution (SIGMA) was added and absorbance of the reaction mixture in each well was measured at 405 nm.

T1 sequence (Q08722 19-323): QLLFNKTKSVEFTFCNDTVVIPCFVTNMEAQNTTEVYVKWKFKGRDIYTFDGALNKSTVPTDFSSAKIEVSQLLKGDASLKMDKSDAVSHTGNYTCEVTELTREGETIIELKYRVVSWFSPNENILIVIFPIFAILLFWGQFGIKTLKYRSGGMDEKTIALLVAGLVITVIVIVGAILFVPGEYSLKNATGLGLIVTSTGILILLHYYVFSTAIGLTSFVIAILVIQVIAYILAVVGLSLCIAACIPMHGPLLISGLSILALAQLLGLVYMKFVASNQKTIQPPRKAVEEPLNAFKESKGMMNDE

B1: MABL2-scFv <HL-0> (scFv)
scFv: QVQLQQSGPELVKPGASVKMSCKASGYTFANHVIHWVKQKPGQGLEWIGYIYPYNDGTKYNEKFKDKATLTSDKSSTTAYMDLSSLASEDSAVYYCARGGYYTYDDWGQGTTLTVSSDVVMTQSPLSLPVSLGDQASISCRSSQSLVHSNGKTYLHWYLQKPGQSPKLLIYKVSNRFSGVPDRFSGSGSVTDFTLMISRVEAEDLGVYFCSQSTHVPYTFGGGTKLEIKDYKDDDDK
notes: [H chain V]-[L chain V] without a linker, with a leader at the 5' end and FLAG at the C-terminus; COS7 culture supernatant; also called CF2HL-0/pCOS1
With B1, in assay [1], the binding result is “binds”.

B2: chimera MABL-1 antibody (antibody, V domains shown)
VH: QVQLQQSGPDLVKPGASVKMSCKASGYTFVNHVMHWVKQKPGQGLEWIGYIYPYNDGTKYNEKFKGKATLTSEKSSSAAYMELSSLASEDSAVYYCARGGYYSYDDWGQGTTLTVSS
VL: DVVMTQTPLSLPVSLGDQASISCRSSQSLLHSKGNTYLQWYLQKPGQSPKLLIYKVSNRFSGVPDRFSGSGSGTDFTLKISRVEAEDLGVYFCSQSTHVPYTSGGGTKLEIK
notes: Mouse MABL-1 V regions cloned into HEF-kappa and HEF-gamma expression vectors carrying human C regions (WO92/19759); Tested as COS7 culture supernatant
Take B2: the binding result in assay [2] is reported as “binds”.

B3: chimera MABL-2 antibody (antibody, V domains shown)
VH: QVQLQQSGPELVKPGASVKMSCKASGYTFANHVIHWVKQKPGQGLEWIGYIYPYNDGTKYNEKFKDKATLTSDKSSTTAYMDLSSLASEDSAVYYCARGGYYTYDDWGQGTTLTVSS
VL: DVVMTQSPLSLPVSLGDQASISCRSSQSLVHSNGKTYLHWYLQKPGQSPKLLIYKVSNRFSGVPDRFSGSGSVTDFTLMISRVEAEDLGVYFCSQSTHVPYTFGGGTKLEIK
notes: Mouse MABL-2 V regions cloned into HEF-kappa and HEF-gamma expression vectors carrying human C regions (WO92/19759); Tested as COS7 culture supernatant
Turning to B3, in assay [2], the binding result was “binds”.

B4: antibody MABL-2 sc(Fv)2, reconstructed polypeptide comprising two H chain V regions and two L chain V regions (other)
chain: QVQLQQSGPELVKPGASVKMSCKASGYTFANHVIHWVKQKPGQGLEWIGYIYPYNDGTKYNEKFKDKATLTSDKSSTTAYMDLSSLASEDSAVYYCARGGYYTYDDWGQGTTLTVSSGGGGSGGGGSGGGGSDVVMTQSPLSLPVSLGDQASISCRSSQSLVHSNGKTYLHWYLQKPGQSPKLLIYKVSNRFSGVPDRFSGSGSVTDFTLMISRVEAEDLGVYFCSQSTHVPYTFGGGTKLEIKGGGGSGGGGSGGGGSVDSQVQLQQSGPELVKPGASVKMSCKASGYTFANHVIHWVKQKPGQGLEWIGYIYPYNDGTKYNEKFKDKATLTSDKSSTTAYMDLSSLASEDSAVYYCARGGYYTYDDWGQGTTLTVSSGGGGSGGGGSGGGGSDVVMTQSPLSLPVSLGDQASISCRSSQSLVHSNGKTYLHWYLQKPGQSPKLLIYKVSNRFSGVPDRFSGSGSVTDFTLMISRVEAEDLGVYFCSQSTHVPYTFGGGTKLEIKDYKDDDDK
notes: Single chain VH-VL-VH-VL from plasmid pCHOM2(Fv)2, with a C-terminal FLAG; Eluted at the position of the monomer in gel filtration
For the molecule B4, the binding result in assay [1] is listed as “binds”.

B5: MABL2-scFv <LH-0> (scFv)
scFv: DVVMTQSPLSLPVSLGDQASISCRSSQSLVHSNGKTYLHWYLQKPGQSPKLLIYKVSNRFSGVPDRFSGSGSVTDFTLMISRVEAEDLGVYFCSQSTHVPYTFGGGTKLEIKQVQLQQSGPELVKPGASVKMSCKASGYTFANHVIHWVKQKPGQGLEWIGYIYPYNDGTKYNEKFKDKATLTSDKSSTTAYMDLSSLASEDSAVYYCARGGYYTYDDWGQGTTLTVSSDYKDDDDK
notes: [L chain V]-[H chain V] without a linker, with a leader at the 5' end and FLAG at the C-terminus; COS7 culture supernatant; also called CF2LH-0/pCOS1
As to B5, the binding result in assay [1] is given as “binds”.

B6: reconstructed single-chain Fv of antibody MABL-2 (MABL2-scFv), from pCHOM2-transfected COS7 cells (scFv)
scFv: QVQLQQSGPELVKPGASVKMSCKASGYTFANHVIHWVKQKPGQGLEWIGYIYPYNDGTKYNEKFKDKATLTSDKSSTTAYMDLSSLASEDSAVYYCARGGYYTYDDWGQGTTLTVSSGGGGSGGGGSGGGGSDVVMTQSPLSLPVSLGDQASISCRSSQSLVHSNGKTYLHWYLQKPGQSPKLLIYKVSNRFSGVPDRFSGSGSVTDFTLMISRVEAEDLGVYFCSQSTHVPYTFGGGTKLEIKDYKDDDDK
notes: Tested as COS7 culture supernatant; also called MABL2-scFv/COS7
With B6, the binding result in assay [3] and in assay [1] was “binds” each time.
